Measured values published in US20230272390A1, “COMPOSITIONS AND METHODS FOR HEMOGLOBIN PRODUCTION” (THE CHILDREN'S HOSPITAL OF PHILADELPHIA, priority 2020, published 2023).

Legend:
[1] = system: negative control oligo (shares 7/17 bp with the consensus motif); assay: Fluorescence polarization DNA binding assay, negative control oligo; details: same conditions
Method: The fragment of Human ZNF410 (NP_001229855.1) comprising of five zinc finger domains ZF1-5 (residues 217-366) was cloned into pGEX-6P-1 vector with a GST fusion tag (pXC2180). The plasmid was transformed into Escherichia coli strain BL21-Codon-plus(DE3)-RIL (Stratagene). Bacteria was grown in LB broth in a shaker at 37° C. until reaching the log phase (A600 nm between 0.4 and 0.5), the shaker temperature was then set to 16° C. and 25 μM ZnCl2 was added to the cell culture. When the shaker temperature reached 16° C. and A600 nm reached ˜0.8, the protein expression was induced by the addition of 0.2 mM isopropyl-3-D-thiogalactopyranoside with subsequent growth for 20 hours at 16° C. […]
Fluorescence polarization (FP) method was used to measure the binding affinity using a Synergy™ 4 Microplate Reader (BioTek). […]
To further gain insight into the molecular basis of how the ZNF410 tandem ZF domain recognizes its targeting DNA sequence, crystallization of the ZNF410-DNA complex was performed. The binding affinity of the ZNF410 ZF domain (ZF1-5) with the consensus motif was quantified by fluorescence polarization using purified GST fusion protein (Patel, et al. (2016) Methods Enzymol., 573:387-401). […]

[2] = system: motifs from the CHD4 promoter and enhancer sites; assay: EMSA with COS-7 nuclear extracts and radiolabeled probes; format: binding, human; details: COS nuclear extracts, FLAG-tagged constructs, radiolabeled CHD4 motif probes
Method: Nuclear extracts were prepared from COS-7 cells transiently transfected with ZNF410 full-length and ZNF410 ZF1-5 plasmids. FuGENE® 6 (Promega) was used to transfect 5 μg of vector into 100 mm plates of COS-7 cells. A pcDNA3 empty vector was used as control. Cells were harvested 48 hours after transfection and nuclear extracts prepared (Andrews, et al. (1991) Nucleic Acids Res., 19:2499).
EMSAs were performed (Crossley, et al. (1996) Mol. Cell Biol., 16:1695-1705). The sense oligonucleotide was labelled with [γ-^32P]-adenosine triphosphate (Perkin Elmer) and boiled at 100° C. for 1 minute before addition of the antisense oligonucleotide and annealing of probe via slow cooling from 100° C. to room temperature. Probes were purified using Quick Spin Columns for radio-labelled DNA Purification (Roche). Nuclear extracts were harvested from COS-7 cells and samples and loaded on a 6% native polyacrylamide gel in TBE buffer (45 mM Tris, 45 mM boric acid, 1 mM EDTA). A ‘COS empty’ control lane was included to show binding of any background endogenous protein to the probe. […] Gels were run at 250 V for 1 hour, 45 minutes at 4° C. then dried under vacuum. […]
ZNF410 contains five tandem C2H2-type zinc fingers (ZFs) potentially involved in DNA binding (FIG. 5A). […] Direct DNA binding by full length (FL) ZNF410 to sequences found at the CHD4 gene was assessed by electrophoretic mobility shift assays (EMSAs). […]

B1: ZF1-5: fragment of human ZNF410 comprising five zinc finger domains ZF1-5 (residues 217-366); dominant-negative when overexpressed (protein)
chain: KKLKCTVEGCDRTFVWPAHFKYHLKTHRNDRSFICPAEGCGKSFYVLQRLKVHMRTHNGEKPFMCHESGCGKQFTTAGNLKNHRRIHTGEKPFLCEAQGCGRSFAEYSSLRKHLVVHSGEKPHQCQVCGKTFSQSGSRNVHMRKHHLQLG
modifications: left off: small tags and cut ends
notes: fragment of human ZNF410 comprising five zinc finger domains ZF1-5 (residues 217-366); dominant-negative when overexpressed
binding to the negative control oligo [1]: no measurable binding
DNA binding in EMSA [2]: strong DNA binding
